# Data: patent US20050232926A1, “Antibodies specific for cancer associated antigen SM5-1 and uses thereof” (Oncomax Acquisition Corp., priority 2003, published 2005)
# Key:
# [1] = test system: human hepatocellular carcinoma cell line QYC; assay: Complement-dependent cytotoxicity (CDC), LDH release; assay type: cell-based; conditions: 5% normal human sera, 3-4 h, FIG. 8
# Source text: Antigen recognized by anti-SM5-1 is highly expressed on the surface of human hepatocellular carcinoma cell line QYC. With human complement in the culture fluid, the target cells bound with chimeric antibodies will be lysed by so-called complement dependent cell mediated cytotoxicity (CDC). When there is an over dose of complement (provided by fresh normal human sera), in a certain range, the degree of lysis is related to antibody concentration. Degree of lysis can be determined by detecting lactate dehydrogenase (LDH) released by the lysed cells.
# Cell line for bioactivity determination is QYC, which is without any pathogen. […]
# QYC cells in the logarithmic growth stage were taken and counted. […]
# 50 ul supernatant was transferred from each well to corresponding wells in a second 96-well plate, and 50 ul well-mixed LDH test kit reagent was added into the well of the second plate. […] OD was measured with 490 nm as detecting light wave length, and 630 nm as reference wave length.
# The results were analyzed with specific analysis software Select2.2 to make auto analysis and calculate standard curve line: horizontal axis stands for the concentration of the standard product and samples, vertical axis stands for optical adsorption, recovery equation as 4-parameter equation, resulting in a “s” curve line. Half effective dosage (ED50) of the standard product and samples were calculated. […]
# [2] = test system: human hepatocellular carcinoma cell line QYC; assay: Therapeutic effect in QYC-bearing nude mice; assay type: in vivo; conditions: 4 mg/kg/week tail vein, after 6 weeks, FIG. 9
# Procedure: Chimeric and humanized anti-SM5-1 monoclonal antibodies, and humanized and chimeric anti-CD3 antibodies were tested for their therapeutic effects in QYC bearing nude mice.
# Forty female nude mice were inoculated s.c with QYC. After seven weeks, tumor masses reached 0.5 cm in diameter. These mice were randomly divided into 5 groups: 8 mice for PBS group; 8 mice for non-related antibody, chimeric anti-human CD3 mAb, 4 mg/kg; 8 mice for humanized anti-human CD3 mAb, 4 mg/kg; 8 mice for anti-human SM5-1 chimeric mAb, 4 mg/kg; 8 mice for anti-human SM5-1 humanized mAb, 4 mg/kg.
# Four mAbs were diluted into final concentration 0.4 mg/ml with PBS. Mice were tail vein injected at 4 mg/kg/week through tail vein, with the control injected equal volume of PBS. According to body weight of nude mice, injection volume was about 250 ul for each nude mouse.
# After 6 weeks, size of the tumor mass was measured in each mouse and statistical analyzed. […] These antibodies may function via ADCC and/or CDC.
# [3] = test system: hepatocelluer carcinoma cell line QYC; assay: Antigen binding activity by FCM; set-up: species or system human; conditions: compared with chSM5-1
# Procedure: The humanized VL and VH were cloned into pMG18-3K expression vector and was expressed transiently in COS cells, yielding humanized version. Humanized antibody in COS cell culture supernatant was quantitated by ELISA and the binding of this version to hepatocelluer carcinoma cell line QYC was determined by FCM. […] The important FR residues that may have influences on binding activity were analyzed and the backmutation assay was carried out. […] The humanized version was designated as ReSM5-1 and its amino acid sequence and nucleotide sequence of both the heavy chain and the light chain shown in Table 3 below.
# [4] = biological target: human SM5-1 antigen (human); assay: BIAcore (SPR), method of Karlsson et al.; antigen preparation and format not stated
# [5] = test system: SM5-1 antigen; assay: Competition binding assay
Molecule,anti-neoplasm effect via CDC [1],size of the tumor mass [2],antigen binding activity [3],Kd [4],avidity [5]
"chSM5-1: mouse-human chimeric antibody with mSM5-1 variable regions (SEQ ID NO:3, 4) and human constant regions (antibody, V domains shown, human constant regions; Mus Musculus) VH: EVQLQQSGPELVKPGASVKMSCKASGYTFTSYVMHWVKQKPGQGLDWIGYIVPYNDGTKYNEKFKGKATLTSDKSSSTAYMELSRLTSEDSAVYYCVYGSRYDWYLDVWGAGTTVTVSS VL: NIMMTQSPSSLAVSAGEKVTMSCKSSQSVLYSSNQKNYLAWYQQKPGQSPKLLIYWASTRESGVPDRFTGSGSGTDFTLTISSVQAEDLAVYYCHQYFSSYTFGGGTKLEIKR",induced the apoptosis and inhibited the growth of tumor cells through the CDC pathway,effective in controlling the size of the tumor mass,,,
"humanized anti-SM5-1 antibody (ReSM5-1) (antibody, V domains shown) VH: QVQLVQSGGGVVQPGRSLRLSCKASGYTFTSYVMHWVRQAPGKGLEWIGYIVPYNDGTKYNEKFKGRFTISSDKSKSTAFLQMDSLRPEDTAVYYCARGSRYDWYLDYWGQGTPVTVSS VL: NIMMTQSPSSLSASVGDRVTITCKSSQSVLYSSNQKNYLAWYQQTPGKAPKLLIYWASTRESGVPSRFSGSGSGTDYTFTISSLQPEDIATYYCHQYFSSYTFGQGTKLQITR",induced the apoptosis and inhibited the growth of tumor cells through the CDC pathway,effective in controlling the size of the tumor mass,same antigen binding activity as chSM5-1,9.31 nM,equivalent avidity as the murine SM5-1 or chimeric SM5-1 antibody
